This note sets out measurements from US20110172168A1 (MEDIGENE, published 2011).

The experiment deals with T1, CEA-derived … (SEQ ID NO: 71)-HLA-A*0201 complex (biotin on the C-terminal biotinylation tag (enzymatic, BirA)).
T1 construct: also called soluble biotinylated HLA-A2-peptide complex; not shown: C-terminal biotinylation tag that replaces the transmembrane and cytoplasmic domains
The experiment is described as follows: Biacore SPR, pMHC immobilised. The method, then: SPR measures changes in refractive index expressed in response units (RU) near a sensor surface within a small flow cell, a principle that can be used to detect receptor ligand interactions and to analyse their affinity and kinetic parameters. The probe flow cells were prepared by immobilising the pMHC complexes in flow cells via biotin-tag binding. The assay was then performed by passing soluble ILT over the surfaces of the different flow cells at a constant flow rate, measuring the SPR response in doing so.

B1: SEQ ID NO 7 (receptor)
chain: MAGHLPKPTLWAEPGSVITMDQPVTLRCQGGQETQEYRLYREKKTAPWITRIPQELVKKGQFPIPSITWEHAGRYRCYYGSDTSQWSASSDPLELVVTGVYIKPTLSAQPSPVVNSGGNVTLQCDSQVAFDGFILCKEGEDEHPQCLNSQPHARGSSRAIFSVGPVSPSRRWWYRCYAYPIWTPYEWSLPSDLLELDVDG
Broadly, the Kd is the equilibrium constant for the complex coming apart. Higher therefore signals lower affinity. For orientation: koff means a measure of how fast the partners let go of each other. Molecule B1 registered a Kd not above 1 µM and a koff not above 2 s⁻¹.

B2: SEQ ID NO 21 (receptor)
chain: MAGHLPKPTLWAEPGSVITMDQPVTLRCQGGQETQEYRLYREKKTAPWITRIPQELVKKGQFPIPSITWEHAGRYRCYYGSDTSQWSASSDPLELVVTGVYIKPTLSAQPSPVVNSGGNVTLQCDSQVAFDGFILCKEGEDEHPQCLNSQPHARGSSRAIFSVGPVSPSRRWWYRCYAYPWFTPYEWSLPSDLLELDVDG
In turn, B2 returned a Kd not above 1 µM and a koff not above 2 s⁻¹.

B3: SEQ ID NO 14 (receptor)
chain: MAQHLPKPTLWAEPGSVITMDQPVTLRCQGGQETQEYRLYREKKTAPWITRIPQELVKKGQFPIPSITWEHAGRYRCYYGSDTSQWSASSDPLELVVTGVYIKPTLSAQPSPVVNSGGNVTLQCDSQVDFDGFILCKEGEDEHPQCLNSQPHARGSSRAIFSVGPVSPSRRWWYRCYAYDSNSPYEWSLPSDLLELDVDG
For the molecule B3, the Kd is not above 1 µM and the koff was not above 2 s⁻¹.

B4: SEQ ID NO 23 (receptor)
chain: MAGHLPKPTLWAEPGSVITMDQPVTLRCQGGQETQEYRLYREKKTAPWITRIPQELVKKGQFPIPSITWEHAGRYRCYYGSDTSQWSASSDPLELVVTGVYIKPTLSAQPSPVVNSGGNVTLQCDSQVAFDGFILCKEGEDEHPQCLNSQPHARGSSRAIFSVGPVSPSRRWWYRCYAYVEWLPYEWSLPSDLLELDVDG
As to B4, the dissociation constant (Kd) was not above 1 µM and the koff was not above 2 s⁻¹.

B5: SEQ ID NO 18 (receptor)
chain: MAGHLPKPTLWAEPGSVITMDQPVTLRCQGGQETQEYRLYREKKTAPWITRIPQELVKKGQFPIPSITWEHAGRYRCYYGSDTSQWSASSDPLELVVTGVYIKPTLSAQPSPVVNSGGNVTLQCDSQVAFDGFILCKEGEDEHPQCLNSQPHARGSSRAIFSVGPVSPSRRWWYRCYAYMSWAPYEWSLPSDLLELDVDG
B5 showed a Kd not above 1 µM and a koff not above 2 s⁻¹.

B6: SEQ ID NO 15 (receptor)
chain: MAQHLPKPTLWAEPGSVITMDQPVTLRCQGGQETQEYRLYREKKTAPWITRIPQELVKKGQFPIPSITWEHAGRYRCYYGSDTSQWSASSDPLELVVTGVYIKPTLSAQPSPVVNSGGNVTLQCDSQVSFDGFILCKEGEDEHPQCLNSQPHARGSSRAIFSVGPVSPSRRWWYRCYAYDSNSPYEWSLPSDLLELDVDG
Take B6: the dissociation constant (Kd) is not above 1 µM and the koff was not above 2 s⁻¹.

B7: SEQ ID NO 20 (receptor)
chain: MAGHLPKPTLWAEPGSVITMDQPVTLRCQGGQETQEYRLYREKKTAPWITRIPQELVKKGQFPIPSITWEHAGRYRCYYGSDTSQWSASSDPLELVVTGVYIKPTLSAQPSPVVNSGGNVTLQCDSQVAFDGFILCKEGEDEHPQCLNSQPHARGSSRAIFSVGPVSPSRRWWYRCYAYPDFTPYEWSLPSDLLELDVDG
The molecule B7 showed a Kd not above 1 µM and a koff not above 2 s⁻¹.

B8: SEQ ID NO 9 (receptor)
chain: MAGHLPKPTLWAEPGSVITMDQPVTLRCQGGQETQEYRLYREKKTAPWITRIPQELVKKGQFPIPSITWEHAGRYRCYYGSDTSQWSASSDPLELVVTGVYIKPTLSAQPSPVVNSGGNVTLQCDSQVAFDGFILCKEGEDEHPQCLNSQPHARGSSRAIFSVGPVSPSRRWWYRCYAYMNWAPYEWSLPSDLLELDVDG
B8: the Kd was not above 1 µM and the koff is not above 2 s⁻¹.

B9: SEQ ID NO 10 (receptor)
chain: MAGHLPKPTLWAEPGSVITMDQPVTLRCQGGQETQEYRLYREKKTAPWITRIPQELVKKGQFPIPSITWEHAGRYRCYYGSDTSQWSASSDPLELVVTGVYIKPTLSAQPSPVVNSGGNVTLQCDSQVAFDGFILCKEGEDEHPQCLNSQPHARGSSRAIFSVGPVSPSRRWWYRCYAYTDYSPYEWSLPSDLLELDVDG
B9 yielded a dissociation constant Kd not above 1 µM and a koff not above 2 s⁻¹.

B10: SEQ ID NO 17 (receptor)
chain: MAQHLPKPTLWAEPGSVITMDQPVTLRCQGGQETQEYRLYREKKTAPWITRIPQELVKKGQFPIPSITWEHAGRYRCYYGSDTSQWSASSDPLELVVTGVYIKPTLSAQPSPVVNSGGNVTLQCDSQVAYDGFILCKEGEDEHPQCLNSQPHARGSSRAIFSVGPVSPSRRWWYRCYAYDSNSPYEWSLPSDLLELDVDG
For B10, the Kd is not above 1 µM and the koff was not above 2 s⁻¹.

B11: SEQ ID NO 16 (receptor)
chain: MAQHLPKPTLWAEPGSVITMDQPVTLRCQGGQETQEYRLYREKKTAPWITRIPQELVKKGQFPIPSITWEHAGRYRCYYGSDTSQWSASSDPLELVVTGVYIKPTLSAQPSPVVNSGGNVTLQCDSQVTFDGFILCKEGEDEHPQCLNSQPHARGSSRAIFSVGPVSPSRRWWYRCYAYDSNSPYEWSLPSDLLELDVDG
B11 registered a Kd not above 1 µM and a koff not above 2 s⁻¹.

B12: SEQ ID NO 12 (receptor)
chain: MAGHLPKPTLWAEPGSVITMDQPVTLRCQGGQETQEYRLYREKKTAPWITRIPQELVKKGQFPIPSITWEHAGRYRCYYGSDTSQWSASSDPLELVVTGVYIKPTLSAQPSPVVNSGGNVTLQCDSQVAFDGFILCKEGEDEHPQCLNSQPHARGSSRAIFSVGPVSPSRRWWYRCYAYVSYWPYEWSLPSDLLELDVDG
On to B12, for which the Kd is not above 1 µM and the koff was not above 2 s⁻¹.

B13: SEQ ID NO 13 (receptor)
chain: MAGHLPKPTLWAEPGSVITMDQPVTLRCQGGQETQEYRLYREKKTAPWITRIPQELVKKGQFPIPSITWEHAGRYRCYYGSDTSQWSASSDPLELVVTGVYIKPTLSAQPSPVVNSGGNVTLQCDSQVAFDGFILCKEGEDEHPQCLNSQPHARGSSRAIFSVGPVSPSRRWWYRCYAYPAWTPYEWSLPSDLLELDVDG
B13 yielded a Kd not above 1 µM and a koff not above 2 s⁻¹.

B14: SEQ ID NO 8 (receptor)
chain: MAGHLPKPTLWAEPGSVITMDQPVTLRCQGGQETQEYRLYREKKTAPWITRIPQELVKKGQFPIPSITWEHAGRYRCYYGSDTSQWSASSDPLELVVTGVYIKPTLSAQPSPVVNSGGNVTLQCDSQVAFDGFILCKEGEDEHPQCLNSQPHARGSSRAIFSVGPVSPSRRWWYRCYAYVAWAPYEWSLPSDLLELDVDG
Molecule B14 returned a Kd not above 1 µM and a dissociation rate constant (koff) not above 2 s⁻¹.

B15: SEQ ID NO 11 (receptor)
chain: MAGHLPKPTLWAEPGSVITMDQPVTLRCQGGQETQEYRLYREKKTAPWITRIPQELVKKGQFPIPSITWEHAGRYRCYYGSDTSQWSASSDPLELVVTGVYIKPTLSAQPSPVVNSGGNVTLQCDSQVAFDGFILCKEGEDEHPQCLNSQPHARGSSRAIFSVGPVSPSRRWWYRCYAYVDWFPYEWSLPSDLLELDVDG
As for B15, the Kd was not above 1 µM and the koff is not above 2 s⁻¹.
